Source: patent US20240209062A1 (INVETX, published 2024)
Numbering of substitutions follows the chain as printed. Names and notes keep the numbering of the source.

B1: IgG with feline IgG1a Fc variant S252M, R301V (antibody)
heavy: DVQLVESGGDLVKPGGSLRLTCVASGLSLTSDSMSWVRQAPGKGLQWVSTLWSNRGTYYTDSVKGRFTISKDNAENTLYLQMNNLKTEDTATYYCASIYYYEADYLHWYFDFWGQGALVTVSSASTTAPSVFPLAPSCGTTSGATVALACLVLGYFPEPVTVSWNSGALTSGVHTFPAVLQASGLYSLSSMVTVPSSRWLSDTFTCNVAHPPSNTKVDKTVRKTDHPPGPKPCDCPKCPPPEAAGGPSIFIFPPKPKDTLMISRTPEVTCLVVDLGPDDSDVQITWFVDNTQVYTAKTSPREEQFNSTYVVVSVLPILHQDWLKGKEFKCKVNSKSLPSPIERTISKAKGQPHEPQVYVLPPAQEELSRNKVSVTCLIKSFHPPDIAVEWEITGQPEPENNYRTTPPQLDSDGTYFVYSKLSVDRSHWQRGNTYTCSVSHEALHSHHTQKSLTQSPG
light: EIQMTQSPTSLSASVGDRVTITCRASEGIANNLSWYQQTPGKAPKLLIYATSNLHSGVPSRFSGSGSGTDFTLTISSLQPEDFATYYCQQGFKWPLTFGGGTKLEITRSDAQPSVFLFQPSLDELHTGSASIVCILNDFYPKEVNVKWKVDGVVQNKGIQESTTEQNSKDSTYSLSSTLTMSSTEYQSHEKFSCEVTHKSLASTLVKSFNRSECQRE
notes: IgG1a constant domain with MALA mutations (M234A, L244A as printed); variable domains from WO 2023/97275
B2: IgG with feline IgG1a Fc variant S252Y, L309D (antibody)
heavy: B1 heavy with M261Y, V310R, L318D
light: B1 light
notes: as for B1
B3: IgG with feline IgG1a Fc variant S252Y, I377L (antibody)
heavy: B1 heavy with M261Y, V310R, I386L
light: B1 light
notes: Printed '1377L' read as I377L; IgG1a constant domain with MALA mutations (M234A, L244A as printed); variable domains from WO 2023/97275; also called S252Y, 1377L
B4: IgG with feline IgG1a Fc variant S252M, R392E (antibody)
heavy: B1 heavy with V310R, R403E
light: B1 light
notes: as for B1
B5: IgG with feline IgG1a Fc variant S252Y (antibody)
heavy: B1 heavy with M261Y, V310R
light: B1 light
notes: as for B1
B6: IgG with feline IgG1a Fc variant S252M, T286D (antibody)
heavy: B1 heavy with T295D, V310R
light: B1 light
notes: as for B1
B7: IgG with feline IgG1a Fc variant S252M, R392D (antibody)
heavy: B1 heavy with V310R, R403D
light: B1 light
notes: as for B1
B8: IgG with feline IgG1a Fc variant S252Y, R301L (antibody)
heavy: B1 heavy with M261Y, V310L
light: B1 light
notes: as for B1
B9: IgG with feline IgG1a Fc variant S252M, T286E (antibody)
heavy: B1 heavy with T295E, V310R
light: B1 light
notes: as for B1
B10: IgG with feline IgG1a Fc variant S252Y, I377Y (antibody)
heavy: B1 heavy with M261Y, V310R, I386Y
light: B1 light
notes: Printed '1377Y' read as I377Y; IgG1a constant domain with MALA mutations (M234A, L244A as printed); variable domains from WO 2023/97275; also called S252Y, 1377Y
B11: IgG with feline IgG1a Fc variant S252M, R301Y (antibody)
heavy: B1 heavy with V310Y
light: B1 light
notes: as for B1
B12: IgG with feline IgG1a Fc variant S252Y, L309V (antibody)
heavy: B1 heavy with M261Y, V310R, L318V
light: B1 light
notes: as for B1

Biological target: T1, feline FcRn (soluble portion of large subunit p51 isoform X1 with C-terminal 6xHis-tag, co-expressed with … (feline, UniProt Q5MGS7 21-118))
T1 construct: Heterodimer made by co-expression in CHO cells, purified on HisTrap FF; also called FcRn complex
T1 sequence (chain, as listed by the source limits assumed, chain 1 of 2): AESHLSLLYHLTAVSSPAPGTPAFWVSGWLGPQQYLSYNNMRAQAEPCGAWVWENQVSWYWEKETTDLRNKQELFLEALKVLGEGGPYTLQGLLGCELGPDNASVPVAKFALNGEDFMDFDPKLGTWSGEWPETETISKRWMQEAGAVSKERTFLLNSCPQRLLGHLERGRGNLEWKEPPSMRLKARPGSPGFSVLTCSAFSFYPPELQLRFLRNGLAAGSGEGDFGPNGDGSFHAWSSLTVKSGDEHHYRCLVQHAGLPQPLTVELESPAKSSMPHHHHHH
T1 sequence (Q5MGS7 other isoform, or with tags, fused parts or gaps limits assumed, chain 2 of 2): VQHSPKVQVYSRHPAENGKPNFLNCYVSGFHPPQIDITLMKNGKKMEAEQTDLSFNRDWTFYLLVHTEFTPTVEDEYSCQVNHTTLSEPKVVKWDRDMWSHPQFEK
Experiment: SPR, Biacore T200, IgG captured on Protein L chip, feline FcRn flowed over, pH 5.9, 1:1 fit
Protocol: The feline FcRn binding experiments at pH 5.9 were completed on a BIACORE™ T200 instrument. A Series S Protein L Sensor chip (Cytiva, Cat. No. BR29205137) was used to capture the antibody variants via the kappa (κ) light chain. The feline variants were captured onto the protein L chip at a flow rate of 10 μL/min for 60 seconds. 1×PBX-P+(Cytiva Cat 28995084) was adjusted to pH 5.9 for the running buffer. The feline FcRn was flowed over the sensor chip at 30 μL/min for 120 seconds contact time and 600 seconds dissociation time. Regeneration of the flow cells was completed by flowing over 10 mM glycine, pH 1.7 at 30 μL/min for 30 seconds. The data were evaluated by the BIACORE™T200 Evaluation software v3.2.1 by fitting to a 1:1 kinetic interaction model.

Q: How did the Kd turn out when B1 was run?
A: 278 nM

Q: And the koff?
A: 0.206 s⁻¹

Q: What about the kon of the same binder?
A: 745000 M⁻¹ s⁻¹

Q: With B2 as the binder, how does the Kd read?
A: 56.7 nM

Q: What about the koff of the same binder?
A: 0.0284 s⁻¹

Q: And the kon?
A: 502000 M⁻¹ s⁻¹

Q: Which results are given for B3?
A: Kd: 31.5 nM; koff: 0.0224 s⁻¹; kon: 712000 M⁻¹ s⁻¹

Q: B4 was tested. Which Kd did it give?
A: 186 nM

Q: What about the koff of the same binder?
A: 0.177 s⁻¹

Q: And the kon?
A: 965000 M⁻¹ s⁻¹

Q: B5 was tested. Which Kd did it give?
A: 36.1 nM

Q: What about the koff of the same binder?
A: 0.0268 s⁻¹

Q: And the kon?
A: 742000 M⁻¹ s⁻¹

Q: What does the source list for B6?
A: Kd: 123 nM; koff: 0.105 s⁻¹; kon: 850000 M⁻¹ s⁻¹

Q: Which Kd does the source give for B7 here?
A: 268 nM

Q: And the koff?
A: 0.229 s⁻¹

Q: What about the kon of the same binder?
A: 856000 M⁻¹ s⁻¹

Q: Which results are given for B8?
A: Kd: 38.8 nM; koff: 0.0277 s⁻¹; kon: 714000 M⁻¹ s⁻¹

Q: With B9 as the binder, how does the Kd read?
A: 101 nM

Q: And the koff?
A: 0.0719 s⁻¹

Q: And the kon?
A: 715000 M⁻¹ s⁻¹

Q: B10 was tested. Which Kd did it give?
A: 36.1 nM

Q: What about the koff of the same binder?
A: 0.0258 s⁻¹

Q: And the kon?
A: 716000 M⁻¹ s⁻¹

Q: Which results are given for B11?
A: Kd: 258 nM; koff: 0.18 s⁻¹; kon: 695000 M⁻¹ s⁻¹

Q: Which results are given for B12?
A: Kd: 18.7 nM; koff: 0.0139 s⁻¹; kon: 747000 M⁻¹ s⁻¹
